Results on 1 molecule are retold here after CN101798349A (INST BIOENGINEERING AMMS, dated 2010).

The test addresses T1, uPAR蛋白 (尿激酶型纤溶酶原激活物受体, R&D Systems 807-UK-100) (UniProt Q03405 23-303, limits assumed).
T1 construct: Bought protein; also called 抗原uPAR
Put plainly: SPR, Biacore 3000, CM5 chip, HBS-EP pH 7.4, 0-100 nmol/L, mean of 3 repeats. Background: Surface plasmon resonance follows binding to a sensor surface in real time, without labels.

T1 sequence (Q03405 23-303 limits assumed): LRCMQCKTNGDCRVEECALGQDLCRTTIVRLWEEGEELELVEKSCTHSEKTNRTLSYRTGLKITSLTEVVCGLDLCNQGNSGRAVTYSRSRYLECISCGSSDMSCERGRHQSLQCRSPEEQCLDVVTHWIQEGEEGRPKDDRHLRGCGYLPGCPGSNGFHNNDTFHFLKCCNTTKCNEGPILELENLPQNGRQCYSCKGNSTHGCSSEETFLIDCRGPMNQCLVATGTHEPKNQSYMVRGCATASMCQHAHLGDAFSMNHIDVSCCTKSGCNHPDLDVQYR

B1: 抗uPAR人源化抗体Y2B (antibody, V domains shown)
VH: EVQLVQSGAEVKKPGSSVKVSCKASGYTFTDYYIHWVRQAPGQGLEWIGWIFHGSDNTEYNEKFKSKATITADESTSTAYMELSSLRSEDTAVFYCARWGPHWYFDAWGRGTLVTVSP
VL: DIQMTQSPSTLSASVGDRVTITCRASSSVSYIHWYQQKPGRAPKPLMYEASSRATGVPSRFSGSGSGTEYTLTISSLQSDDFATYYCQQWNYPFTFGQGTKLEIKR
notes: also called 抗uPAR抗体Y2B; Y2B抗体
As for B1, binding was characterised by a dissociation constant (Kd) of 14.9 nM.

As a reminder, the Kd is the constant that tells how readily two partners part at equilibrium. Low values mean tighter binding, high ones weaker binding.
